From patent publication US20150368309A1 (SHIRE HUMAN GENETIC THERAPIES, published 2015)

Target: the molecule itself
Assay: DSS crosslinking, anti-Flt-1 Western blot
Protocol: PLGF and sFlt-1 (Human sFlt-1:Abcam, Cat#54346) were incubated on ice for 2 hrs in 100 μL crosslinking buffer. After the incubation, the crosslinking reagent, Disuccinimidyl suberate (DSS), was added, 1 μL of 25 mM stock DSS (in DMSO) to a final concentration of 250 μM. After brief vortexing, the mixture was incubated on ice for additional 15 min.
To analyze the crosslinked complexes using Western blot, the pellets were solubilized with 30 μL of 1×LDS buffer containing 10 mM DTT. After heating the dissolved pellets to 37° C. for 15 min, 10 μL of the sample was loaded onto 8 to 16% Tris-glycince SDS-PAGE gel. The gels were transferred to PVDF membranes by standard method for anti-PLGF or anti-Flt-1 Western blot analysis.
WT PLGF forms dimers in its native state, and the binding models of WT PLGF with hsFlt-1 were established. A PLGF C59A monomer binding with Flt-1 receptor monomer is also found. The binding complexes, WT PLGF-hsFlt-1 and PLGF C59A-hsFlt-1, were crosslinked by DSS through amine groups on the surface of PLGF or hsFlt-1 molecules. After separating on SDS-PAGE, PLGF-containing or Flt-1 containing binding complexes were detected on Western blot by anti-PLGF or anti-Flt-1 antibodies.

B1: Human sFlt-1 (Abcam, Cat#54346), without Fc fusion (receptor, UniProt P17948-2 27-687, looked up)
chain: SKLKDPELSLKGTQHIMQAGQTLHLQCRGEAAHKWSLPEMVSKESERLSITKSACGRNGKQFCSTLTLNTAQANHTGFYSCKYLAVPTSKKKETESAIYIFISDTGRPFVEMYSEIPEIIHMTEGRELVIPCRVTSPNITVTLKKFPLDTLIPDGKRIIWDSRKGFIISNATYKEIGLLTCEATVNGHLYKTNYLTHRQTNTIIDVQISTPRPVKLLRGHTLVLNCTATTPLNTRVQMTWSYPDEKNKRASVRRRIDQSNSHANIFYSVLTIDKMQNKDKGLYTCRVRSGPSFKSVNTSVHIYDKAFITVKHRKQQVLETVAGKRSYRLSMKVKAFPSPEVVWLKDGLPATEKSARYLTRGYSLIIKDVTEEDAGNYTILLSIKQSNVFKNLTATLIVNVKPQIYEKAVSSFPDPALYPLGSRQILTCTAYGIPQPTIKWFWHPCNHNHSEARCDFCSNNEESFILDADSNMGNRIESITQRMAIIEGKNKMASTLVVADSRISGIYICIASNKVGTVGRNISFYITDVPNGFHVNLEKMPTEGEDLKLSCTVNKFLYRDVTWILLRTVNNRTMHYSISKQKMAITKEHSITLNLTIMNVSLQDSGTYACRARNVYTGEEILQKKEITIRGEHCNKKAVFSRISKFKSTRNDCTTQSNVKH
notes: also called hsFlt-1; commercial sFlt-1 that doesn't contain Fc fusion
  binding result: no binding
